Assay results: patent US20210388110A1 (published 2021)

Molecular target: T1, soluble human GPC3 (human, UniProt P51654 25-563, limits assumed)
T1 construct: soluble human GPC3 as analyte; also called glypican 3
Assay: SPR (Biacore), soluble human GPC3

T1 sequence (P51654 other isoform, or with tags, fused parts or gaps limits assumed, form in doubt): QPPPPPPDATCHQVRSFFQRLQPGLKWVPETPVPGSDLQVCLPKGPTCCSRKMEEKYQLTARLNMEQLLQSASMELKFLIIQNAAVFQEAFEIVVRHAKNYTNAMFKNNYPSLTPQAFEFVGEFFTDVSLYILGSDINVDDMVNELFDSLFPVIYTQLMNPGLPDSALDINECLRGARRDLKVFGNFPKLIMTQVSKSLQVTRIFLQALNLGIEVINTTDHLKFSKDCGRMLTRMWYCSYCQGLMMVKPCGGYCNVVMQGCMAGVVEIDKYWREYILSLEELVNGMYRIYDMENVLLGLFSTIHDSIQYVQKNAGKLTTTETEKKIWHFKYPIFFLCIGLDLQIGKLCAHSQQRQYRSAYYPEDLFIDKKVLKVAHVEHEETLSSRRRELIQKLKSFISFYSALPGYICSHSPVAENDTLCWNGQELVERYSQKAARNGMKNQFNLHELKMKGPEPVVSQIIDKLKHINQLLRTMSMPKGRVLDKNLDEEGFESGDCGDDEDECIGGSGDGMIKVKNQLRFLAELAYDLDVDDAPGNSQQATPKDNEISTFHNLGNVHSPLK

B1: H0610-G1dh/none-Hi-Kn010G3/L0000-k0 (antibody, human IgG1, kappa)
heavy: not shown
chain: EPKSSDKTHTCPPCPAPELLGGPSVFLFPPKPKDTLMISRTPEVTCVVVDVSHEDPEVKFNWYVDGVEVHNAKTKPREEQYNSTYRVVSVLTVLHQDWLNGKEYKCKVSNKALPAPIEKTISKAKGQPREPQVCTLPPSRDELTKNQVSLWCLVKGFYPSDIAVEWESNGQPENNYKTTPPVLDSDGSFFLYSKLTVDKSRWQQGNVFSCSVMHEALHNRYTQKSLSLSP
light: DIVMTQSPLSLPVTPGEPASISCRSSQSLVHSNRNTYLHWYQQKPGQAPRLLIYKVSNRFSGVPDRFSGSGSGTDFTLKISRVEAEDVGVYYCGQGTQVPYTFGQGTKLEIKRTVAAPSVFIFPPSDEQLKSGTASVVCLLNNFYPREAKVQWKVDNALQSGNSQESVTEQDSKDSTYSLSSTLTLSKADYEKHKVYACEVTHQGLSSPVTKSFNRGEC
notes: single-arm (one Fab)
Binder B1 has a Kd of 3.97 nM.

B2: GCH007-G1dh/none-Hi-Kn010G3/L0000-k0 (antibody, human IgG1, kappa)
heavy: not shown
chain: EPKSSDKTHTCPPCPAPELLGGPSVFLFPPKPKDTLMISRTPEVTCVVVDVSHEDPEVKFNWYVDGVEVHNAKTKPREEQYNSTYRVVSVLTVLHQDWLNGKEYKCKVSNKALPAPIEKTISKAKGQPREPQVCTLPPSRDELTKNQVSLWCLVKGFYPSDIAVEWESNGQPENNYKTTPPVLDSDGSFFLYSKLTVDKSRWQQGNVFSCSVMHEALHNRYTQKSLSLSP
light: DIVMTQSPLSLPVTPGEPASISCRSSQSLVHSNRNTYLHWYQQKPGQAPRLLIYKVSNRFSGVPDRFSGSGSGTDFTLKISRVEAEDVGVYYCGQGTQVPYTFGQGTKLEIKRTVAAPSVFIFPPSDEQLKSGTASVVCLLNNFYPREAKVQWKVDNALQSGNSQESVTEQDSKDSTYSLSSTLTLSKADYEKHKVYACEVTHQGLSSPVTKSFNRGEC
notes: single-arm (one Fab)
B2 showed a Kd of 4.93 nM.

B3: GCH016-G1dh/none-Hi-Kn010G3/L0000-k0 (antibody, human IgG1, kappa)
heavy: not shown
chain: EPKSSDKTHTCPPCPAPELLGGPSVFLFPPKPKDTLMISRTPEVTCVVVDVSHEDPEVKFNWYVDGVEVHNAKTKPREEQYNSTYRVVSVLTVLHQDWLNGKEYKCKVSNKALPAPIEKTISKAKGQPREPQVCTLPPSRDELTKNQVSLWCLVKGFYPSDIAVEWESNGQPENNYKTTPPVLDSDGSFFLYSKLTVDKSRWQQGNVFSCSVMHEALHNRYTQKSLSLSP
light: DIVMTQSPLSLPVTPGEPASISCRSSQSLVHSNRNTYLHWYQQKPGQAPRLLIYKVSNRFSGVPDRFSGSGSGTDFTLKISRVEAEDVGVYYCGQGTQVPYTFGQGTKLEIKRTVAAPSVFIFPPSDEQLKSGTASVVCLLNNFYPREAKVQWKVDNALQSGNSQESVTEQDSKDSTYSLSSTLTLSKADYEKHKVYACEVTHQGLSSPVTKSFNRGEC
notes: single-arm (one Fab)
For B3, the Kd was 4.59 nM.

B4: GCH006-G1dh/none-Hi-Kn010G3/L0000-k0 (antibody, human IgG1, kappa)
heavy: not shown
chain: EPKSSDKTHTCPPCPAPELLGGPSVFLFPPKPKDTLMISRTPEVTCVVVDVSHEDPEVKFNWYVDGVEVHNAKTKPREEQYNSTYRVVSVLTVLHQDWLNGKEYKCKVSNKALPAPIEKTISKAKGQPREPQVCTLPPSRDELTKNQVSLWCLVKGFYPSDIAVEWESNGQPENNYKTTPPVLDSDGSFFLYSKLTVDKSRWQQGNVFSCSVMHEALHNRYTQKSLSLSP
light: DIVMTQSPLSLPVTPGEPASISCRSSQSLVHSNRNTYLHWYQQKPGQAPRLLIYKVSNRFSGVPDRFSGSGSGTDFTLKISRVEAEDVGVYYCGQGTQVPYTFGQGTKLEIKRTVAAPSVFIFPPSDEQLKSGTASVVCLLNNFYPREAKVQWKVDNALQSGNSQESVTEQDSKDSTYSLSSTLTLSKADYEKHKVYACEVTHQGLSSPVTKSFNRGEC
notes: single-arm (one Fab)
In the case of B4, the Kd is reported as 4.06 nM.

B5: GCH014-G1dh/none-Hi-Kn010G3/L0000-k0 (antibody, human IgG1, kappa)
heavy: not shown
chain: EPKSSDKTHTCPPCPAPELLGGPSVFLFPPKPKDTLMISRTPEVTCVVVDVSHEDPEVKFNWYVDGVEVHNAKTKPREEQYNSTYRVVSVLTVLHQDWLNGKEYKCKVSNKALPAPIEKTISKAKGQPREPQVCTLPPSRDELTKNQVSLWCLVKGFYPSDIAVEWESNGQPENNYKTTPPVLDSDGSFFLYSKLTVDKSRWQQGNVFSCSVMHEALHNRYTQKSLSLSP
light: DIVMTQSPLSLPVTPGEPASISCRSSQSLVHSNRNTYLHWYQQKPGQAPRLLIYKVSNRFSGVPDRFSGSGSGTDFTLKISRVEAEDVGVYYCGQGTQVPYTFGQGTKLEIKRTVAAPSVFIFPPSDEQLKSGTASVVCLLNNFYPREAKVQWKVDNALQSGNSQESVTEQDSKDSTYSLSSTLTLSKADYEKHKVYACEVTHQGLSSPVTKSFNRGEC
notes: single-arm (one Fab)
In the case of B5, the Kd is reported as 4.2 nM.

B6: GCH019-G1dh/none-Hi-Kn010G3/L0000-k0 (antibody, human IgG1, kappa)
heavy: not shown
chain: EPKSSDKTHTCPPCPAPELLGGPSVFLFPPKPKDTLMISRTPEVTCVVVDVSHEDPEVKFNWYVDGVEVHNAKTKPREEQYNSTYRVVSVLTVLHQDWLNGKEYKCKVSNKALPAPIEKTISKAKGQPREPQVCTLPPSRDELTKNQVSLWCLVKGFYPSDIAVEWESNGQPENNYKTTPPVLDSDGSFFLYSKLTVDKSRWQQGNVFSCSVMHEALHNRYTQKSLSLSP
light: DIVMTQSPLSLPVTPGEPASISCRSSQSLVHSNRNTYLHWYQQKPGQAPRLLIYKVSNRFSGVPDRFSGSGSGTDFTLKISRVEAEDVGVYYCGQGTQVPYTFGQGTKLEIKRTVAAPSVFIFPPSDEQLKSGTASVVCLLNNFYPREAKVQWKVDNALQSGNSQESVTEQDSKDSTYSLSSTLTLSKADYEKHKVYACEVTHQGLSSPVTKSFNRGEC
notes: single-arm (one Fab)
B6 was tested, and the Kd was 4.36 nM.

B7: GCH013-G1dh/none-Hi-Kn010G3/L0000-k0 (antibody, human IgG1, kappa)
heavy: not shown
chain: EPKSSDKTHTCPPCPAPELLGGPSVFLFPPKPKDTLMISRTPEVTCVVVDVSHEDPEVKFNWYVDGVEVHNAKTKPREEQYNSTYRVVSVLTVLHQDWLNGKEYKCKVSNKALPAPIEKTISKAKGQPREPQVCTLPPSRDELTKNQVSLWCLVKGFYPSDIAVEWESNGQPENNYKTTPPVLDSDGSFFLYSKLTVDKSRWQQGNVFSCSVMHEALHNRYTQKSLSLSP
light: DIVMTQSPLSLPVTPGEPASISCRSSQSLVHSNRNTYLHWYQQKPGQAPRLLIYKVSNRFSGVPDRFSGSGSGTDFTLKISRVEAEDVGVYYCGQGTQVPYTFGQGTKLEIKRTVAAPSVFIFPPSDEQLKSGTASVVCLLNNFYPREAKVQWKVDNALQSGNSQESVTEQDSKDSTYSLSSTLTLSKADYEKHKVYACEVTHQGLSSPVTKSFNRGEC
notes: single-arm (one Fab)
Binder B7 has a Kd of 4.44 nM.

B8: GCH015-G1dh/none-Hi-Kn010G3/L0000-k0 (antibody, human IgG1, kappa)
heavy: not shown
chain: EPKSSDKTHTCPPCPAPELLGGPSVFLFPPKPKDTLMISRTPEVTCVVVDVSHEDPEVKFNWYVDGVEVHNAKTKPREEQYNSTYRVVSVLTVLHQDWLNGKEYKCKVSNKALPAPIEKTISKAKGQPREPQVCTLPPSRDELTKNQVSLWCLVKGFYPSDIAVEWESNGQPENNYKTTPPVLDSDGSFFLYSKLTVDKSRWQQGNVFSCSVMHEALHNRYTQKSLSLSP
light: DIVMTQSPLSLPVTPGEPASISCRSSQSLVHSNRNTYLHWYQQKPGQAPRLLIYKVSNRFSGVPDRFSGSGSGTDFTLKISRVEAEDVGVYYCGQGTQVPYTFGQGTKLEIKRTVAAPSVFIFPPSDEQLKSGTASVVCLLNNFYPREAKVQWKVDNALQSGNSQESVTEQDSKDSTYSLSSTLTLSKADYEKHKVYACEVTHQGLSSPVTKSFNRGEC
notes: single-arm (one Fab)
B8 gave a Kd of 4.14 nM.

B9: GCH010-G1dh/none-Hi-Kn010G3/L0000-k0 (antibody, human IgG1, kappa)
heavy: not shown
chain: EPKSSDKTHTCPPCPAPELLGGPSVFLFPPKPKDTLMISRTPEVTCVVVDVSHEDPEVKFNWYVDGVEVHNAKTKPREEQYNSTYRVVSVLTVLHQDWLNGKEYKCKVSNKALPAPIEKTISKAKGQPREPQVCTLPPSRDELTKNQVSLWCLVKGFYPSDIAVEWESNGQPENNYKTTPPVLDSDGSFFLYSKLTVDKSRWQQGNVFSCSVMHEALHNRYTQKSLSLSP
light: DIVMTQSPLSLPVTPGEPASISCRSSQSLVHSNRNTYLHWYQQKPGQAPRLLIYKVSNRFSGVPDRFSGSGSGTDFTLKISRVEAEDVGVYYCGQGTQVPYTFGQGTKLEIKRTVAAPSVFIFPPSDEQLKSGTASVVCLLNNFYPREAKVQWKVDNALQSGNSQESVTEQDSKDSTYSLSSTLTLSKADYEKHKVYACEVTHQGLSSPVTKSFNRGEC
notes: single-arm (one Fab)
Work on B9 yielded a Kd of 4.12 nM.
